Experimental data from publication PMC9722636.

Target: recombinant HAstV MLB1 capsid spike domain (residues 399-653 of the HAstV MLB1 capsid protein) (Human astrovirus MLB1)
Assay: SEC

Substance: recombinant HAstV MLB1 capsid spike domain (residues 399-653 of the HAstV MLB1 capsid protein) (domain or fragment)
- stoichiometry N: 2
